According to patent US20150139990A1 (DAINIPPON SUMITOMO PHARMA, published 2015):

Experiments:
Test in all cases: ELISA
[1] = target: T1, h190c human-chicken CD81 chimera (human; chicken, UniProt P60033 1-236)
T1 construct: as m30; not shown: C-terminal V5 and 6xHis tags
T1 chain: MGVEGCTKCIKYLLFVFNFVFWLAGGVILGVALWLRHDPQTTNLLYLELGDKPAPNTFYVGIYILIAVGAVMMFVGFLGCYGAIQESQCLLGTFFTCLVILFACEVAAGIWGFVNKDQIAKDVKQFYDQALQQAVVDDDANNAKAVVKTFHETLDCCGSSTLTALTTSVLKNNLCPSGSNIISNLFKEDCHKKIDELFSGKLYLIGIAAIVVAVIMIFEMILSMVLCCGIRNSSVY
Description: (§1) To identify the epitopes to which each of the anti-human CD81 antibodies (002-A07 and 005-001) bind, ELISA assays were performed using human-chicken CD81 chimera constructs listed in Table 6. Each construct was transiently expressed in CHO cells and its cell membrane fraction was solubilized with detergents and immobilized onto a plate.
(§2) As control antibodies, human IgG4 antibody (Acris Antibodies GmbH) and mouse IgG antibody were used. Human-chicken chimera protein was captured via His tag introduced into the C-terminal by adding the membrane fraction (5 μg/100 μL/well) prepared (1) above to Ni NTA His Sorb plate (QIAGEN) in the presence of 1% (w/v) n-Octylglucoside and incubating for 3 hours at 4° C. After washing with TBST (TBS, 0.05% (v/v) Tween 20) three times, an anti-human CD81 antibody or a control antibody (50 μL/well) was added and incubated for 1 hour at room temperature (RT). After washing, 2000 fold-diluted HRP-labeled anti-human IgG4 antibody (Mouse anti-human IgG₄ HRP clone:HP6023 Beckman Coulter) or 1000 fold-diluted HRP-labeled anti-mouse IgG antibody (Invitrogen) (50 μL/well) were added. The plate was incubated for 1 hour at RT and washed with TBST three times. And then, peroxidase activity was determined by TMB One solution (Promega; Code 53025). The reaction was stopped with 2 M H₂SO₄ (50 μL) and absorbance at 450 nm was measured.

[2] = target: T2, c190h human-chicken CD81 chimera (chicken; human)
T2 construct: as m30; not shown: C-terminal V5 and 6xHis tags
T2 chain: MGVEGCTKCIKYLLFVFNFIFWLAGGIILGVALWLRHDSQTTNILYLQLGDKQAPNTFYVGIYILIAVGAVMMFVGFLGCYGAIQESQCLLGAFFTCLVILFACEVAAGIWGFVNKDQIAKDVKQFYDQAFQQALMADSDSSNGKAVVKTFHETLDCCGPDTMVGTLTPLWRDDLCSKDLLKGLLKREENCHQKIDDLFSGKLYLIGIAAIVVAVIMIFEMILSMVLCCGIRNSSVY
Description: as §1, §2

[3] = target: T3, c175h human-chicken CD81 chimera (chicken; human)
T3 construct: as m30; not shown: C-terminal V5 and 6xHis tags
T3 chain: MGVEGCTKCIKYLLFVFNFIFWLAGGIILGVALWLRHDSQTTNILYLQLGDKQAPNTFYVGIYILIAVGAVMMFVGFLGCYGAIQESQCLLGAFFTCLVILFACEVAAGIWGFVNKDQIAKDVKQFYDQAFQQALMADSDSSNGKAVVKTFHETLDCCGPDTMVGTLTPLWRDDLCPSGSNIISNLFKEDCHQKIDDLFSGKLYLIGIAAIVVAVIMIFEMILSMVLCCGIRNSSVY
Description: as §1, §2

[4] = target: T4, c138h human-chicken CD81 chimera (chicken; human, UniProt P60033 1-236)
T4 construct: as m30; not shown: C-terminal V5 and 6xHis tags
T4 chain: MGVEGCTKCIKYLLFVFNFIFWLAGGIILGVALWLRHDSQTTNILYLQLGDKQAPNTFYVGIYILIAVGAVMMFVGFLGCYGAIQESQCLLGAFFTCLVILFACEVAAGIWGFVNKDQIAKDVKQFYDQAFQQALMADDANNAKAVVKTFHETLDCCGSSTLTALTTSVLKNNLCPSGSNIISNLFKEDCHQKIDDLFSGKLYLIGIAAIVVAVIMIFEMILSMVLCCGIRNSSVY
Description: as §1, §2

[5] = target: T5, h80c human-chicken CD81 chimera (human; chicken)
T5 construct: as m30; not shown: C-terminal V5 and 6xHis tags
T5 chain: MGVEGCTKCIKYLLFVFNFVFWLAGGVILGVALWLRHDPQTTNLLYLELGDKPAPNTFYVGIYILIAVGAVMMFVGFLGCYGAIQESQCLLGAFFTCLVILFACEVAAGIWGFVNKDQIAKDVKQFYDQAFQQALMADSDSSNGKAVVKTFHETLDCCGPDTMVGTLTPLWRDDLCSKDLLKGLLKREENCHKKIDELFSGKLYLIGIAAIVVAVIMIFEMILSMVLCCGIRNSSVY
Description: as §1, §2

[6] = target: T6, h138c human-chicken CD81 chimera (human; chicken)
T6 construct: as m30; not shown: C-terminal V5 and 6xHis tags
T6 chain: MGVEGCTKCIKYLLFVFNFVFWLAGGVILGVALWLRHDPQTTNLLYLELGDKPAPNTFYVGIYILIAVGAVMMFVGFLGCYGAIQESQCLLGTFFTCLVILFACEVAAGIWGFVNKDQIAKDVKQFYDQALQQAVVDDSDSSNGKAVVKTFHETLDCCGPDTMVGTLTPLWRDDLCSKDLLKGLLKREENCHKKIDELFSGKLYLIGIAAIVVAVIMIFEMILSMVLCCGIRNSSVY
Description: as §1, §2

human CD81 mutant A164T = target: T7, human CD81 mutant A164T (human, UniProt P60033 1-236, limits assumed)
T7 construct: as m30; not shown: C-terminal V5 and 6xHis tags
T7 sequence: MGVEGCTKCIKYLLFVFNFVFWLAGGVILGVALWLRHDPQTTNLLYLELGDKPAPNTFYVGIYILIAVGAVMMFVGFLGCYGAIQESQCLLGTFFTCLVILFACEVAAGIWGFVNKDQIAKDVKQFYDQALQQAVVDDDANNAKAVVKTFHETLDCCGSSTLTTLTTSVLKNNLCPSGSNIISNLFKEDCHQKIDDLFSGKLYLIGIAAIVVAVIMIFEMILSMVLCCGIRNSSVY
In short: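 Human CD81 point mutants in pcDNA-DEST40 with C-terminal V5 and 6×His tags were expressed transiently in CHO cells for 48 hours. Membranes were solubilised with 1% n-octylglucoside and loaded at 5 μg/100 μL/well on Ni-NTA His Sorb plates (3 hours, 4° C). Antibody binding (1 hour, room temperature) was detected with HRP anti-human IgG4, TMB and absorbance at 450 nm. Relative binding affinity is the percentage of wild-type CD81 binding, corrected for V5-tag expression.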

binding result [1]: binds
absorbance at 450 nm relative to hCD81 [2]: < 10%
absorbance at 450 nm relative to hCD81 [3]: < 10%
absorbance at 450 nm relative to hCD81 [4]: < 10%
absorbance at 450 nm relative to hCD81 [5]: < 10%
absorbance at 450 nm relative to hCD81 [6]: < 10%
relative binding affinity (human CD81 mutant A164T): < 20%
B1: 002-A07 IgG4 antibody (antibody)
heavy: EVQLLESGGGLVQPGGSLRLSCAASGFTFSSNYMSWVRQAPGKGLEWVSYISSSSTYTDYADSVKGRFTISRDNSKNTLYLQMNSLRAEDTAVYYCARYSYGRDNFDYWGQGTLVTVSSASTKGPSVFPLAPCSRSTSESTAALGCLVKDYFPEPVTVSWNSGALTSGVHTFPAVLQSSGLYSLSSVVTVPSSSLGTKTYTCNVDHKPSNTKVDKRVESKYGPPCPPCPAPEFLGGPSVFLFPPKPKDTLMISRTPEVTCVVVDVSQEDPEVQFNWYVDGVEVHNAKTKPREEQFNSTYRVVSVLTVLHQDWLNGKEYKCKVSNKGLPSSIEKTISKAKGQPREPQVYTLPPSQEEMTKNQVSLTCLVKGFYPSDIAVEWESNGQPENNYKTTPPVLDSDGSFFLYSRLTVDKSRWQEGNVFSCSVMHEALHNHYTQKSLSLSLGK
light: QSVLTQPPSASGTPGQRVTISCTGSTSNIGAGYDTHWYQQLPGTAPKLLIYGNSNRPSGVPDRFSGSKSGTSASLAISGLRSEDEADYYCQSYDTNLSVWVFGGGTKLTVLGQPKAAPSVTLFPPSSEELQANKATLVCLISDFYPGAVTVAWKADSSPVKAGVETTTPSKQSNNKYAASSYLSLTPEQWKSHRSYSCQVTHEGSTVEKTVAPTECS
notes: human IgG4 S228P, lambda light chain
